Measurements published in paper PMC5389555.

Tests used:
[1] = biological target: HA-GSK3β-K85R (UniProt P49841); assay: co-IP; HEK293T transfected with HA-GSK3β-WT, -S9A, -K85R or -K85A,K86A; lysates pre-cleared, EZView anti-HA agarose beads, 4°C overnight; blots for p72, DGCR8 and HA
[2] = biological target: HA-GSK3β (wild-type) (UniProt P49841); assay: co-IP; HEK293T transfected with HA-GSK3β-WT; anti-HA beads washed in TBS, then RNase A treatment (200 μg/ml) for 15 min at 4°C; blots for p72, DGCR8, Drosha and HA

Substance: p72 (DDX17) (endogenous) (natural protein)
- percent reduction of co-precipitation against GSK3β-WT [1]: 60%
- percent reduction of co-precipitation after RNase A treatment [2]: > 50%
